Earlier results on one substance are cited in PMC12692597.

The data set has as its target IL-13 (Homo sapiens) (UniProt P35225).
Chain of UniProt P35225 (P35225 25-146): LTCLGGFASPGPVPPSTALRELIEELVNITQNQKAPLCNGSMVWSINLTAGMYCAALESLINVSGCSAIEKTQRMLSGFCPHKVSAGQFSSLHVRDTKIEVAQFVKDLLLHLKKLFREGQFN

Usually Kd stands for the free concentration of one partner at which half of the binding sites on the other are occupied at equilibrium, for simple one-to-one binding. As for IL-13Rα2 (from UniProt Q14627), the Kd was 0.02 nM.
